Test results: PMC3567247 (Biochemistry, 2012)
Like-named read-outs stand apart in the source and are kept apart here.

What was measured:
Experiment in all cases: SPR
Lymphotoxin-α [1] = biological target: T1, Lymphotoxin-α (UniProt P01374 35-205)
T1 sequence (looked up): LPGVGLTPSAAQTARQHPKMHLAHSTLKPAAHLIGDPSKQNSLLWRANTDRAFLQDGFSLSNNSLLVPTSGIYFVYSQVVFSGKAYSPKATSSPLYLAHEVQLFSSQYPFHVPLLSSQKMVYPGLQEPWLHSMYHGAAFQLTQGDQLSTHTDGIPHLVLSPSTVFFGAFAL

Lymphotoxin-α [2] = biological target: T1, Lymphotoxin-α; remark: listed apart in the source
Lymphotoxin-α [3] = biological target: T1, Lymphotoxin-α; remark: listed apart in the source

B1: Soluble TNFR1 extracellular domain, residues 40-201 (receptor, human, UniProt P19438 40-201, looked up)
chain: RDSVCPQGKYIHPQNNSICCTKCHKGTYLYNDCPGPGQDTDCRECESGSFTASENHLRHCLSCSKCRKEMGQVEISSCTVDRDTVCGCRKNQYRHYWSENLFQCFNCSLCLNGTVHLSCQEKQNTVCTCHAGFFLRENECVSCSNCKKSLECTKLCLPQIEN
Kd (Lymphotoxin-α [1]): 0.046 µM | koff (Lymphotoxin-α [1]): 0.0092 s⁻¹ | kon (Lymphotoxin-α [1]): 170000 M⁻¹ s⁻¹ | Kd (Lymphotoxin-α [2]): 0.057 µM | Kd (Lymphotoxin-α [3]): 0.05 ± 0.01 µM
